# Measurements published in patent US7015022B2, “Mammalian catalase-dependent oxidation processes and methods for stimulating oxidative activities” (University of Medicine & Dentistry of New Jersey, priority 2002, dated 2006).
# Substrate: CC(=O)N1c2ccc(O)cc2Oc2cc(O)ccc21
# Assay: Catalase-dependent oxidation of AMPLEX-RED to resorufin in the absence of hydrogen peroxide (Lineweaver-Burke enzyme kinetics)
# Type: biochemical, bovine
# Conditions: other: Lineweaver-Burke analysis, catalase 1 mg/ml, 50 mM phosphate buffer pH 7.4, room temperature, no hydrogen peroxide
# Procedure: Reactions were carried out in buffer consisting of 50 mM phosphate buffer, pH 7.4 and 1.0 mg/ml of the catalase at room temperature (22° C.) in a reaction volume of 0.1 ml. […] Standard reaction mixtures contain 20 nmoles of the substrate. Detection of the fluorescent product resorufin was measured using an HTS 7000 Plus Bio Assay Reader (Perkin Elmer, Beaconsfield, Buckinghamsire, UK) using a 540 nm excitation filter and a 595 nm emission filter.
protein,measurement,value
"mammalian catalase (Bos taurus) (protein, purified catalases obtained from a variety of sources including enzyme from mouse and bovine liver; purchased Sigma Chemical Co., St. Louis, Mo; host or cells: liver tissue (mouse and bovine named)) ADNRDPASDQMKHWKEQRAAQKPDVLTTGGGNPVGDKLNSLTVGPRGPLLVQDVVFTDEMAHFDRERIPERVVHAKGAGAFGYFEVTHDITRYSKAKVFEHIGKRTPIAVRFSTVAGESGSADTVRDPRGFAVKFYTEDGNWDLVGNNTPIFFIRDALLFPSFIHSQKRNPQTHLKDPDMVWDFWSLRPESLHQVSFLFSDRGIPDGHRHMNGYGSHTFKLVNANGEAVYCKFHYKTDQGIKNLSVEDAARLAHEDPDYGLRDLFNAIATGNYPSWTLYIQVMTFSEAEIFPFNPFDLTKVWPHGDYPLIPVGKLVLNRNPVNYFAEVEQLAFDPSNMPPGIEPSPDKMLQGRLFAYPDTHRHRLGPNYLQIPVNCPYRARVANYQRDGPMCMMDNQGGAPNYYPNSFSAPEHQPSALEHRTHFSGDVQRFNSANDDNVTQVRTFYLKVLNEEQRKRLCENIAGHLKDAQLFIQKKAVKNFSDVHPEYGSRIQALLDKYNEEKPKNAVHTYVQHGSHLSAREKANL",Km,244 µM
same,Vmax,4.74e-05 M/s
